Measurements published in article PMC2121028.

Biological target: SNF1/GAL4(1-147)
Experiment: two-hybrid
Conditions: scale: units

SNF1/GAL4(1-147), sequence (P06782 whole entry, the tested form may be a part): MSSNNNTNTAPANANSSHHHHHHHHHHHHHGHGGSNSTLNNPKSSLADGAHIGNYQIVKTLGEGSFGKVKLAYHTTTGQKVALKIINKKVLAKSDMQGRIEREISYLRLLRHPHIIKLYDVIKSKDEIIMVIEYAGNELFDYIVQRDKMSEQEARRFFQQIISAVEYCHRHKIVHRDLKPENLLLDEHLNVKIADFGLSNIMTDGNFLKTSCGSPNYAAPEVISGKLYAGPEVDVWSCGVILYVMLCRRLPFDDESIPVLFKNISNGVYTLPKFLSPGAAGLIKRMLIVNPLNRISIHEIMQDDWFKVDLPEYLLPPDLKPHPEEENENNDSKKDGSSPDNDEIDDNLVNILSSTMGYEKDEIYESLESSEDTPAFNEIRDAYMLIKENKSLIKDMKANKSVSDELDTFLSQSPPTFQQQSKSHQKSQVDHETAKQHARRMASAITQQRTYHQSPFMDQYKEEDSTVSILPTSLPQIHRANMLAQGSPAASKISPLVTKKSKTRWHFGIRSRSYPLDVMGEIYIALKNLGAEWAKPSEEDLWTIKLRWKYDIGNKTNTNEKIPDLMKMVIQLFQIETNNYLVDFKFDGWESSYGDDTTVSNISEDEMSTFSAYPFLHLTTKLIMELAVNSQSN
SNF4/GAL4(768-881) (natural protein), sequence (P12904 whole entry, the tested form may be a part): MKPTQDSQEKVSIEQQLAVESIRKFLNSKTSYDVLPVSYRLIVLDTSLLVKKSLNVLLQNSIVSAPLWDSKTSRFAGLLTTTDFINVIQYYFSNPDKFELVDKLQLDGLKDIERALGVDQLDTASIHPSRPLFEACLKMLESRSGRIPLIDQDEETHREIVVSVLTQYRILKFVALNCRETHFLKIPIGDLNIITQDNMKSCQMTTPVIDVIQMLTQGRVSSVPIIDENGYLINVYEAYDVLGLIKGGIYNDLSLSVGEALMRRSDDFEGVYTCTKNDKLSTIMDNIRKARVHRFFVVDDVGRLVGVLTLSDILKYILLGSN

beta-galactosidase activity: 500
Substance: SNF4/GAL4(768-881) (natural protein)
